From PMC6021111, “Murine leukemia virus p12 tethers the capsid-containing pre-integration complex to chromatin by binding directly to host nucleosomes in mitosis” (PLoS Pathogens, 2018)

B1: Clathrin light chain A: P09496 (protein)
chain: MAELDPFGAPAGAPGGPALGNGVAGAGEEDPAAAFLAQQESEIAGIENDEAFAILDGGAPGPQPHGEPPGGPDAVDGVMNGEYYQESNGPTDSYAAISQVDRLQSEPESIRKWREEQMERLEALDANSRKQEAEWKEKAIKELEEWYARQDEQLQKTKANNRVADEAFYKQPFADVIGYVTNINHPCYSLEQAAEEAFVNDIDESSPGTEWERVARLCDFNPKSSKQAKDVSRMRSVLISLKQAPLVH
B2: Clathrin interactor 1: Q14677 (protein)
chain: MLNMWKVRELVDKATNVVMNYSEIESKVREATNDDPWGPSGQLMGEIAKATFMYEQFPELMNMLWSRMLKDNKKNWRRVYKSLLLLAYLIRNGSERVVTSAREHIYDLRSLENYHFVDEHGKDQGINIRQKVKELVEFAQDDDRLREERKKAKKNKDKYVGVSSDSVGGFRYSERYDPEPKSKWDEEWDKNKSAFPFSDKLGELSDKIGSTIDDTISKFRRKDREDSPERCSDSDEEKKARRGRSPKGEFKDEEETVTTKHIHITQATETTTTRHKRTANPSKTIDLGAAAHYTGDKASPDQNASTHTPQSSVKTSVPSSKSSGDLVDLFDGTSQSTGGSADLFGGFADFGSAAASGSFPSQVTATSGNGDFGDWSAFNQAPSGPVASSGEFFGSASQPAVELVSGSQSALGPPPAASNSSDLFDLMGSSQATMTSSQSMNFSMMSTNTVGLGLPMSRSQNTDMVQKSVSKTLPSTWSDPSVNISLDNLLPGMQPSKPQQPSLNTMIQQQNMQQPMNVMTQSFGAVNLSSPSNMLPVRPQTNALIGGPMPMSMPNVMTGTMGMAPLGNTPMMNQSMMGMNMNIGMSAAGMGLTGTMGMGMPNIAMTSGTVQPKQDAFANFANFSK

Tested on: GST-p12_WT
Experiment: SILAC-MS of proteins enriched with GST-p12_WT relative to GST
Assay type: binding, Mo-MLV
Settings: for SDs from the mean: log2(GST-p12_WT, Heavy/GST, Light)
Excerpt: To test whether GST-p12 was acting like the p12 region of Gag, we used a global proteomic approach based on stable isotope labelling by amino acids in cell culture (SILAC)-mass spectrometry (MS) to look for host proteins that interact with GST-p12 [35, 36]. A schematic diagram of the workflow is illustrated in Fig 4A. Briefly, GST, GST-p12_mut14 and GST-p12_WT were transiently-expressed in 293T cells cultured in light (R0/K0), medium (R6/K4) and heavy (R10/K8) SILAC media, respectively. Next, lysates of nocodazole treated transfected cells were prepared, normalised and used for parallel pull-down assays with glutathione-sepharose beads. The eluates from the beads were then pooled in a 1:1:1 ratio and subjected to LC-MS/MS analysis. The experiment was performed using biological replicates to test reproducibility of the mass-spec hits. The pull-down assays for this experiment were performed using mitotic cell lysates to facilitate identification of any potential chromatin interactions that were previously missed.
After removal of obvious contaminants (e.g. keratin) and non-quantified hits, 948 and 879 proteins were identified in replicates 1 and 2 (R1 and R2) of the experiment respectively (the false discovery rate (FDR) was set at 5%). To select proteins enriched in the heavy-labelled (H) GST-p12_WT sample relative to the light-labelled (L) GST sample, we compared the log2(H/L) silac ratios of the mass-spectrometry hits. When plotted as a frequency distribution, the log2(H/L) ratios of each replicate fitted well to a normal distribution curve (R^2 ≥ 0.98), allowing the mean and standard deviation to be accurately estimated (Fig 4B). In this experiment, contaminants/non-specifically bound cellular proteins were assumed to cluster around the mean of the distribution. […] Twenty one such proteins were identified in R1 and 22 identified in R2 (Fig 4B Venn diagram). […] These proteins were then ranked based on normalised abundance in the group. In mass-spectrometry analysis, larger proteins are in general assigned higher scores. Therefore, to control for protein size, we divided the number of peptide spectral matches identified for each protein with its length and then normalised the values across the group (Fig 4C and 4D). When ranked this way, the clathrin heavy chain (CLTC), clathrin interactor 1 (CLINT1) and NEDD4-like E3 ubiquitin ligase (WWP2) were identified as the top three hits. […] The function of clathrin in MLV infection is unclear. […] Thus, clathrin binding may be relevant to the early stages of MLV replication and should be investigated further.
For SILAC-MS experiments, 293T cells were grown is media containing light (R0K0, ^12C-Arginine and ^12C-Lysine), medium (R6K4, ^13C-Arginine and Lysine-4,4,5,5-d4) or heavy (R10K8, ^13C+^15N-Arginine and ^13C+^15N-Lysine) versions of L-Arginine and L-Lysine amino acids (Pierce) for a minimum of 6 doublings before transient expression of GST-p12 proteins. After performing the glutathione-sepharose pull-down assays equivalent volumes of the beads eluates were pooled and submitted to the Bristol University Proteomics Facility for RP nano-LC-MS/MS analysis. This analysis was performed on an LTQ-Orbitrap Velos mass spectrometer in line with a Dionex Ultimate 3000 nanoHPLC system as described in [53].
Supplementary file ppat.1007117.s005.xlsx: S1 Table Results from the first SILAC-MS analysis. GST, Mo-MLV GST-p12_mut14 or GST-p12_WT were transiently-expressed in 293T cells cultured in light (R0/K0), medium (R6/K4) and heavy (R10/K8) SILAC media, respectively. Mitotic cell lysates were subsequently used for glutathione-sepharose bead pull-down assays. Bead eluates were pooled in a 1:1:1 ratio and then analysed by LC-MS/MS. […] (XLSX) Click here for additional data file.

Row | Molecule | Normalised (PSMs/Length) (Replicate 1) | PSMs (Replicate 1) | PSMs/Length (Replicate 1) | Normalised (PSMs/Length) (Replicate 2) | PSMs (Replicate 2) | PSMs/Length (Replicate 2) | SDs from the mean (Replicate 2)
1 | B1 | 7.412 | 2 | 0.008065 | 7.2207 | 2 | 0.008065 | 7.68
2 | B2 | 26.4693 | 18 | 0.0288 | 22.9214 | 16 | 0.0256 | 13.1531
